According to paper PMC12279946:
Substitutions are numbered along the chain they refer to.

Experiments:
SprT-BR-L99S = molecular target: T1, SprT-BR-L99S (UniProt Q9H040 28-245, L99S); experiment: NMR 1H,15N-HSQC; 100 uM protein, 200 uM DNA; no ubiquitin; line broadening comparable to WT; NMR: 20 mM HEPES/KOH pH 7.2, 150 mM KCl, 10% D2O, 308 K; 100 uM protein, 2x dsDNA, 5x Ub1; conditions: protein: recombinant; blunt
T1 sequence: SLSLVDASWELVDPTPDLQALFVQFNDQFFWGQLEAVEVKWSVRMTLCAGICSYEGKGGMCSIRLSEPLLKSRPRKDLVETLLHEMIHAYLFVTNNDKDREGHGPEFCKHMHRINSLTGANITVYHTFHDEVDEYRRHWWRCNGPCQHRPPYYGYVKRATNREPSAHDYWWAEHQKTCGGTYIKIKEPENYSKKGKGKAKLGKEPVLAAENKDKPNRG

SprT-BR = molecular target: T2, SprT-BR (UniProt Q9H040 28-245); experiment: NMR 1H,15N-HSQC; 100 uM protein, 200 uM DNA; no ubiquitin; line broadening in ZBD-BR; NMR: 20 mM HEPES/KOH pH 7.2, 150 mM KCl, 10% D2O, 308 K; 100 uM protein, 2x dsDNA, 5x Ub1; conditions: protein: recombinant; blunt
T2 sequence: T1 sequence with S72L

[1] = molecular target: SprT-BR;mono-ubiquitin (Ub1) (Homo sapiens?;, UniProt Q9H040;P0CG48 28-245;1-76, |); experiment: NMR 1H,15N-HSQC; 200 uM DNA + 500 uM Ub1; synergistic severe line broadening; NMR: 20 mM HEPES/KOH pH 7.2, 150 mM KCl, 10% D2O, 308 K; 100 uM protein, 2x dsDNA, 5x Ub1; conditions: protein: recombinant;recombinant; copies: 1;1; blunt

Measured: binding result

B1: 15-bp dsDNA (NMR) (dsDNA)
DNA 1: CCTTGCTAGGACATC
DNA 2: GATGTCCTAGCAAGG
binds: all assays above
